Measurements reported in US20220125892A1.

Biological target: mannose-6-phosphate receptor on human neuroblastoma cells (SH-SY5Y) (human)
Assay: cell-based or functional assay

KUPTAKE, net M6PR mediated uptake by SH-SY5Y human neuroblastoma cells (4MUbetaGlc activity in lysates, hyperbolic fit): 1.9 nM
Substance: OxyGCase (uncapped and demannosylated recombinant human glucocerebrosidase variant produced in Yarrowia lipolytica) (enzyme)
